Ki data for six molecules are collected here from patent US20250263504A1 (Takeda / Millennium, published 2025).

“And” between values parts separate entries of the source, which are not always exact repeats. Equal values may be shown once.

In assay [1] the target is T1, plasma kallikrein (pKal) (UniProt P03952 20-390; P03952 391-638, limits assumed).
T1 construct: the description speaks of human pKal; also called active pKal
In words: enzyme inhibition of human pKal: rate (F/s) against antibody concentration (0 to 10 nM), fit to the tight-binding equation printed in the panel; K is Ki,app. Columns are coefficient, std. error, t, P. The unit is taken from the concentration axis '[nM]' [CONT'D) B. (right panel].

The target of assay [2] is T1, plasma kallikrein (pKal). In words: enzyme inhibition assay, apparent Ki.
Assay [3] has as its target T2, Factor XIIa (FXIIa) (UniProt P00748 20-372; P00748 373-615, limits assumed).
T2 construct: the description speaks of human FXIIa; also called active Factor XII
T2 sequence (looked up) 1: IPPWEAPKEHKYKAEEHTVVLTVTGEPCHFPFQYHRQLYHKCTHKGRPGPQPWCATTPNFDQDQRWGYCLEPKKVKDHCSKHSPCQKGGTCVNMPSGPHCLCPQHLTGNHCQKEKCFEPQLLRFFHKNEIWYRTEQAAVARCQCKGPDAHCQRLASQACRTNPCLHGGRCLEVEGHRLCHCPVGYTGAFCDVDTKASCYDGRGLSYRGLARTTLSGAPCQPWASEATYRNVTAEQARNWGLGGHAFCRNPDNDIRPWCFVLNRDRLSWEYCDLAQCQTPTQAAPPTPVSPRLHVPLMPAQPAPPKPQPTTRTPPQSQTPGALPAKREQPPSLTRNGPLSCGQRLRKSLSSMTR
T2 sequence (looked up) 2: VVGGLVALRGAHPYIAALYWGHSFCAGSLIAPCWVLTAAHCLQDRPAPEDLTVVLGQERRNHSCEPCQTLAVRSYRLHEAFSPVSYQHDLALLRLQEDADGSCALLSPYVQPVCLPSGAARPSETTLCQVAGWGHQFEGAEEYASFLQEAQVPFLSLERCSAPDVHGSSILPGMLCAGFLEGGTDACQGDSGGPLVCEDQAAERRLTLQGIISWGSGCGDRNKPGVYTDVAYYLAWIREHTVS
In words: enzyme inhibition assay, apparent Ki.

In assay [4] the target is T2, Factor XIIa (FXIIa). In words: enzyme inhibition: rate (F/s) against antibody concentration (0 to about 9000 pM), fit to the tight-binding inhibitor equation; K is Ki,app. FXIIa as the enzyme follows from the text; it is not printed in the panel [right panel].
Assay [5] has as its target T1, plasma kallikrein (pKal). In words: enzyme inhibition, peptide substrate, tight-binding fit, Ki,app. The procedure:
(§1) Varying concentrations of the bispecific antibodies were incubated with individual FXIIa and pKal samples, and the ability of these proteases to cleave a peptide substrate was monitored over time by measuring changes in the fluorescence of a chemical moiety covalently attached to the peptide substrate. Slopes of this kinetic data are equivalent to enzymatic proteolytic rates, which are then plotted against the concentration of the inhibitor. The resulting plots are then fit to a tight binding inhibitor equation (Equation 1) by nonlinear regression to obtain apparent inhibition constants (Kᵢ^app).

In assay [6] the target is T2, Factor XIIa (FXIIa). The assay is described as above. The procedure: as §1
Assay [7] has as its target T1, plasma kallikrein (pKal). In words: enzyme inhibition, corrected Ki,app, control plate 2.
The target in assay [8] is T1, plasma kallikrein (pKal). In words: enzyme inhibition of human pKal: rate (F/s) against antibody concentration (0 to 10 nM), fit to the tight-binding equation printed in the panel; K is Ki,app. Columns are coefficient, std. error, t, P. The unit is taken from the concentration axis '[nM]' [CONT'D) B. (left panel].
The target in assay [9] is T1, plasma kallikrein (pKal). In words: pKal enzyme inhibition, Ki,app, control.
Assay [10] addresses T1, plasma kallikrein (pKal). In words: enzyme inhibition, corrected Ki,app, control plate 1.

T1 sequence (P03952 20-390 limits assumed, form in doubt, chain 1 of 2): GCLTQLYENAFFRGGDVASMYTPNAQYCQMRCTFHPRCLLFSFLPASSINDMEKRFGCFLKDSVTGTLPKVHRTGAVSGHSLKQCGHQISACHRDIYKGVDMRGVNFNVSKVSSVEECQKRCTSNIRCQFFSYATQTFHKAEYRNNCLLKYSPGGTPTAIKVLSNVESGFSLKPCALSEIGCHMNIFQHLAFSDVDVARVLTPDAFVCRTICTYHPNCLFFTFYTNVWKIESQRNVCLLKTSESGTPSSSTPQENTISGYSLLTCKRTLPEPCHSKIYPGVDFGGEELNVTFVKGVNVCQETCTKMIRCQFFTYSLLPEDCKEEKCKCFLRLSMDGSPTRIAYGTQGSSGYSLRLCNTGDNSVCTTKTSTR
T1 sequence (P03952 391-638 limits assumed, form in doubt, chain 2 of 2): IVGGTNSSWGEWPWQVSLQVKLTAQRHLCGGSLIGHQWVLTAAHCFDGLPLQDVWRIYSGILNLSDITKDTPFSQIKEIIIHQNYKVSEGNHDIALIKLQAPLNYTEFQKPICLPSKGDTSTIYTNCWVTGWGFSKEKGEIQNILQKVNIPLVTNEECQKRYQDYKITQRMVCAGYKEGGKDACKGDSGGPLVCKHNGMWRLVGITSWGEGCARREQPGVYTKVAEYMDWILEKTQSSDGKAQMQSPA

B1: 620I-X0177-A01 (bispecific antibody, human IgG1, kappa)
heavy: not shown
light: DIQMTQSPSTLSASVGDRVTITCRASQSISSWLAWYQQKPGKAPKLLIYKASTLESGVPSRFSGSGSGTEFTLTISSLQPDDFATYYCQQYNTYWTFGQGTKVEIKRTVAAPSVFIFPPSDEQLKSGTASVVCLLNNFYPREAKVQWKVDNALQSGNSQESVTEQDSKDSTYSLSSTLTLSKADYEKHKVYACEVTHQGLSSPVTKSFNRGEC
notes: 620I-X0136-D12 with germlined, gene-optimized scFv and VH44-VL100 disulfide; also called 620I-X0173-A11; 620I-X0136-D12 with H44/L100 engineered disulfide bond
On to B1, for which the Ki turned out to be 0.39 nM with plasma kallikrein (pKal) [1], 0.389 nM in the assay with plasma kallikrein (pKal) [2], 0.073 nM in the assay with Factor XIIa (FXIIa) [3] and 0.0726 nM in the assay with Factor XIIa (FXIIa) [4].

B2: X0122-C01 (bispecific antibody)
heavy: not shown
light: DIQMTQSPSTLSASVGDRVTITCRASQSISSWLAWYQQKPGKAPKLLIYKASTLESGVPSRFSGSGSGTEFTLTISSLQPDDFATYYCQQYNTYWTFGQGTKVEIKRTVAAPSVFIFPPSDEQLKSGTASVVCLLNNFYPREAKVQWKVDNALQSGNSQESVTEQDSKDSTYSLSSTLTLSKADYEKHKVYACEVTHQGLSSPVTKSFNRGEC
notes: also called X122-C01
Regarding B2, the results for the Ki in the assay with plasma kallikrein (pKal) [5] and with Factor XIIa (FXIIa) [6] were 0.161 nM and 5.69 nM, respectively.

B3: X0122-A01 (bispecific antibody)
heavy: not shown
light: DIQMTQSPSTLSASVGDRVTITCRASQSISSWLAWYQQKPGKAPKLLIYKASTLESGVPSRFSGSGSGTEFTLTISSLQPDDFATYYCQQYNTYWTFGQGTKVEIKRTVAAPSVFIFPPSDEQLKSGTASVVCLLNNFYPREAKVQWKVDNALQSGNSQESVTEQDSKDSTYSLSSTLTLSKADYEKHKVYACEVTHQGLSSPVTKSFNRGEC
notes: also called X122-A01
As for B3, the Ki turned out to be 0.169 nM with plasma kallikrein (pKal) [5] and 6.05 nM with Factor XIIa (FXIIa) [6].

B4: X0121-E01 (bispecific antibody)
heavy: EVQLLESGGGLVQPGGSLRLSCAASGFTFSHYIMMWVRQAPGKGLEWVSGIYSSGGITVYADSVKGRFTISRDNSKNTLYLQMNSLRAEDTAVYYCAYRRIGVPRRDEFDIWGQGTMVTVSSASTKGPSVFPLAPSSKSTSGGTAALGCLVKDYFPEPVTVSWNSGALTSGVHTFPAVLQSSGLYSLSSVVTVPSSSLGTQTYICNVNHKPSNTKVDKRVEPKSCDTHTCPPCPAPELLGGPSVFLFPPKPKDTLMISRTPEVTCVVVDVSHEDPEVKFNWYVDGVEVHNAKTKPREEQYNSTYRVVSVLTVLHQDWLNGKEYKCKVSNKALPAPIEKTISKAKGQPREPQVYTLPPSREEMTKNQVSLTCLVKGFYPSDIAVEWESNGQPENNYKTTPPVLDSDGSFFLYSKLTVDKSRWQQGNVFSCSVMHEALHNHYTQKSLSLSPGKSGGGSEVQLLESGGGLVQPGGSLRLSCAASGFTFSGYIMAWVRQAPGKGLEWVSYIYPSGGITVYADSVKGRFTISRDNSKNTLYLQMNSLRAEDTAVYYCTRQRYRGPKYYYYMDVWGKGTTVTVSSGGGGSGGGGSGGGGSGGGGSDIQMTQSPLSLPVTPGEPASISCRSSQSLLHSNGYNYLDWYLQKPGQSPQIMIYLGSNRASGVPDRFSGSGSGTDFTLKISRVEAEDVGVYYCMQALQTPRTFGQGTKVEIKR
light: DIQMTQSPSTLSASVGDRVTITCRASQSISSWLAWYQQKPGKAPKLLIYKASTLESGVPSRFSGSGSGTEFTLTISSLQPDDFATYYCQQYNTYWTFGQGTKVEIKRTVAAPSVFIFPPSDEQLKSGTASVVCLLNNFYPREAKVQWKVDNALQSGNSQESVTEQDSKDSTYSLSSTLTLSKADYEKHKVYACEVTHQGLSSPVTKSFNRGEC
notes: also called X121-E01
As to B4, the Ki with plasma kallikrein (pKal) [5] stood at 0.159 nM; in the assay with Factor XIIa (FXIIa) [6] it was 0.611 nM.

B5: X0120-A01 (bispecific antibody)
heavy: not shown
light: DIQMTQSPSTLSASVGDRVTITCRASQSISSWLAWYQQKPGKAPKLLIYKASTLESGVPSRFSGSGSGTEFTLTISSLQPDDFATYYCQQYNTYWTFGQGTKVEIKRTVAAPSVFIFPPSDEQLKSGTASVVCLLNNFYPREAKVQWKVDNALQSGNSQESVTEQDSKDSTYSLSSTLTLSKADYEKHKVYACEVTHQGLSSPVTKSFNRGEC
notes: also called X120-A01
As to B5, the values for the Ki with plasma kallikrein (pKal) [5] and in the assay with Factor XIIa (FXIIa) [6] were 0.138 nM and 0.0515 nM, respectively.

B6: DX-2930 (antibody, human IgG1, kappa, V domains shown)
VH: EVQLLESGGGLVQPGGSLRLSCAASGFTFSHYIMMWVRQAPGKGLEWVSGIYSSGGITVYADSVKGRFTISRDNSKNTLYLQMNSLRAEDTAVYYCAYRRIGVPRRDEFDIWGQGTMVTVSS
VL: DIQMTQSPSTLSASVGDRVTITCRASQSISSWLAWYQQKPGKAPKLLIYKASTLESGVPSRFSGSGSGTEFTLTISSLQPDDFATYYCQQYNTYWTFGQGTKVEIKR
notes: Anti-pKal IgG1; also called H03
As for B6, the Ki in the assay with plasma kallikrein (pKal) [7] is 0.138 nM; with plasma kallikrein (pKal) [8], 0.202 nM; with plasma kallikrein (pKal) [9] it was 0.127 nM and 0.131 nM and 0.151 nM; in the assay with plasma kallikrein (pKal) [10], 0.16 nM.
